Measurements as given in patent US20250340613A1 (JOINT STOCK COMPANY BIOCAD, published 2025).

B1: 02-004, bivalent bispecific chimeric antibody that specifically binds to PD1 and CD20 (bispecific antibody, human IgG1, kappa, L234A L235A)
heavy 1: QVQLVQSGGGLVQPGGSLRLSCAASGFTFSSYWMYWVRQVPGKGLEWVSAIDTGGGRTYYADSVKGRFAISRVNAKNTMYLQMNSLRAEDTAVYYCARDEGGGTGWGVLKDWPYGLDAWGQGTLVTVSSASTKGPSVFPLAPSSKSTSGGTAALGCLVKDYFPEPVTVSWNSGALTSGVHTFPAVLQSSGLYSLSSVVTVPSSSLGTQTYICNVNHKPSNTKVDKRVEPKSCDKTHTCPPCPAPEAAGGPSVFLFPPKPKDTLYITREPEVTCVVVDVSHEDPEVKFNWYVDGVEVHNAKTKPREEQYNSTYRVVSVLTVLHQDWLNGKEYKCKVSNKALPAPIEKTISKAKGQPREPQVCTLPPSRDELTKNQVSLSCAVKGFYPSDIAVEWESNGQPENNYKTTPPVLDSDGSFFLVSKLTVDKSRWQQGNVFSCSVMHEALHNHYTQKSLSLSPGK
light 1: QPVLTQPLSVSVALGQTARITCGGNNIGSKNVHWYQQKPGQAPVLVIYRDSNRPSGIPERFSGSNSGNTATLTISRAQAGDEADYYCQVWDSSTAVFGTGTKLTVLQRTVAAPSVFIFPPSDEQLKSGTASVVCLLNNFYPREAKVQWKVDNALQSGNSQESVTEQDSKDSTYSLSSTLTLSKADYEKHKVYACEVTHQGLSSPVTKSFNRGEC
heavy 2: not shown
light 2: DIQMTQSPSSLSASVGDRVTITCRASSSVSYMHWYQQKPGKAPKPLIYAPSNLASGVPSRFSGSGSGTDFTLTISSLQPEDFATYYCQQWSFNPPTFGQGTKVEIKQRQVKPEAWLSSGPSPGPGRLQLVCHVSGFYPKPVWVMWMRGEQEQQGTQLGDILPNANWTWYLRATLDVADGEAAGLSCRVKHSSLEGQDIILYWRGSC
notes: Produced in CHO cells
B2: 02-009, bivalent bispecific chimeric antibody that specifically binds to CD20 and CSF1R (bispecific antibody, human IgG1, kappa, L234A L235A)
heavy 1: QVQLVESGGGLVRPGGSLRLSCAASEFTFDDYAMSWVRQAPGKGLEWVSAISWNGGSTNYADSVKGRFTISRDNAKNSLYLQMNSLRAEDTALYYCASTVEVAHRRLYKYLEVWGQGTLVTVSSASTKGPSVFPLAPSSKSTSGGTAALGCLVKDYFPEPVTVSWNSGALTSGVHTFPAVLQSSGLYSLSSVVTVPSSSLGTQTYICNVNHKPSNTKVDKRVEPKSCDKTHTCPPCPAPEAAGGPSVFLFPPKPKDTLYITREPEVTCVVVDVSHEDPEVKFNWYVDGVEVHNAKTKPREEQYNSTYRVVSVLTVLHQDWLNGKEYKCKVSNKALPAPIEKTISKAKGQPREPQVCTLPPSRDELTKNQVSLSCAVKGFYPSDIAVEWESNGQPENNYKTTPPVLDSDGSFFLVSKLTVDKSRWQQGNVFSCSVMHEALHNHYTQKSLSLSPGK
light 1: QAGLTQPPSVSVAPGQTARITCGGNNIGSKSVHWYQQKPGQAPVLVVYGDSDRPSGIPERFSGSNSGNTATLTISRVEAGDEADYYCQVWDISSDHVVFGGGTQLTVLRTVAAPSVFIFPPSDEQLKSGTASVVCLLNNFYPREAKVQWKVDNALQSGNSQESVTEQDSKDSTYSLSSTLTLSKADYEKHKVYACEVTHQGLSSPVTKSFNRGEC
heavy 2: not shown
light 2: B1 light 2
notes: Produced in CHO cells
B3: 02-005, bivalent bispecific chimeric antibody that specifically binds to PD1 and CD20 (bispecific antibody, human IgG1, kappa, L234A L235A)
heavy 1: EVQLVESGGGLVQPGGSLRLSCAASGYTFTSYNMHWVRQAPGKGLEWVGAIYPGNGDTSYNQKFKGRFTISVDKSKNTLYLQMNSLRAEDTAVYYCARVVYYSNSYWYFDVWGQGTLVTVSSASTKGPSVFPLAPSSKSTSGGTAALGCLVKDYFPEPVTVSWNSGALTSGVHTFPAVLQSSGLYSLSSVVTVPSSSLGTQTYICNVNHKPSNTKVDKRVEPKSCDKTHTCPPCPAPEAAGGPSVFLFPPKPKDTLYITREPEVTCVVVDVSHEDPEVKFNWYVDGVEVHNAKTKPREEQYNSTYRVVSVLTVLHQDWLNGKEYKCKVSNKALPAPIEKTISKAKGQPREPQVCTLPPSRDELTKNQVSLSCAVKGFYPSDIAVEWESNGQPENNYKTTPPVLDSDGSFFLVSKLTVDKSRWQQGNVFSCSVMHEALHNHYTQKSLSLSPGK
light 1: DIQMTQSPSSLSASVGDRVTITCRASSSVSYMHWYQQKPGKAPKPLIYAPSNLASGVPSRFSGSGSGTDFTLTISSLQPEDFATYYCQQWSFNPPTFGQGTKVEIKRTVAAPSVFIFPPSDEQLKSGTASVVCLLNNFYPREAKVQWKVDNALQSGNSQESVTEQDSKDSTYSLSSTLTLSKADYEKHKVYACEVTHQGLSSPVTKSFNRGEC
heavy 2: not shown
light 2: QPVLTQPLSVSVALGQTARITCGGNNIGSKNVHWYQQKPGQAPVLVIYRDSNRPSGIPERFSGSNSGNTATLTISRAQAGDEADYYCQVWDSSTAVFGTGTKLTVLQQRQVKPEAWLSSGPSPGPGRLQLVCHVSGFYPKPVWVMWMRGEQEQQGTQLGDILPNANWTWYLRATLDVADGEAAGLSCRVKHSSLEGQDIILYWRGSC
notes: Produced in CHO cells

Columns and labels:
[1] = target: T1, hIL4R-His, Interleukin-4 receptor subunit alpha (Homo sapiens) aa 27-227 (Homo sapiens, UniProt P24394 27-227); test: BLI Octet RED 384; antibody on ProA sensor, antigen 30 ug/ml (1154 nM); response at end of association
T1 construct: range 27-227; not shown: His tag as the name implies
T1 sequence (looked up): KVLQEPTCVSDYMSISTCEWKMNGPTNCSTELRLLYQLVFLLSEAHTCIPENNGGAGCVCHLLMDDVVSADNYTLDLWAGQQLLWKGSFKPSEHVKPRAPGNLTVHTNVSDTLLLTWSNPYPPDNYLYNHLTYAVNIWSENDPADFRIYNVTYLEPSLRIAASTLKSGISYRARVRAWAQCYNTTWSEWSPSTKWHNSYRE
Experimental: (§1) Experimental study of nonspecific binding of bispecific chimeric antibodies to non-target antigens was performed on Forte Bio Octert RED 384. Protein A (ProA) biosensors (ForteBio) were immersed into a solution containing antibodies at a concentration of 10 μg/ml for 150 seconds to immobilize same. The baseline was recorded in a 1×KB solution for 30 seconds. The antibody-loaded sensors were then immersed into wells containing non-target antigens at a concentration of 30 μg/ml for 150 seconds. Complex dissociation was then recorded for 30 seconds.
(§2) The reference sensors went through all the steps as the sensors used to record analyte sensograms did, with the exception of the association step—at the association step, the sensors were immersed in a kinetic buffer solution without analyte (the reference sensor signals were measured in parallel with the recording of the main sensograms). The reference signal was subtracted from the signal received on sensors interacting with the analyte during the processing of sensograms.
(§3) Sensograms were processed using ForteBio Octet Data Analysisn 9.0 software. To report no non-specific interaction, the recorded signal level was checked at the end of the association step (the response parameter).

[2] = target: T2, hisOX40, Tumor necrosis factor receptor superfamily member 4 (Homo sapiens) aa 26-210 (Homo sapiens, UniProt P43489 26-210); test: BLI Octet RED 384; antibody on ProA sensor, antigen 30 ug/ml (1310 nM); response at end of association
T2 construct: range 26-210; The tag is put first only because the name begins with His; not shown: His tag as the name implies
T2 sequence (looked up): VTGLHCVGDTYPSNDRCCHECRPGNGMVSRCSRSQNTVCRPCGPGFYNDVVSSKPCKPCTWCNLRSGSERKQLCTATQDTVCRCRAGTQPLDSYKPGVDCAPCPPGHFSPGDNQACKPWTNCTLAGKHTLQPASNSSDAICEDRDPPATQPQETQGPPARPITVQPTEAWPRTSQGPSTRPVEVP
Experimental: as §1, §2, §3

[3] = target: T3, extracellular domain of the human PD-1 protein (hPD1ex-H6F) (Homo sapiens, UniProt Q15116 21-170); test: BLI Octet RED 384; antibody on ProA sensor, antigen 30 ug/ml (1456 nM); response at end of association
T3 construct: Molecular weight 20.6 kDa; made in CHO cells; also called hPDlex-H6F; not shown: C-terminal His and FLAG tags
Experimental: as §1, §2, §3

[4] = target: T4, C-Avi-His-TEVs-HSA_hBCMA, Tumor necrosis factor receptor superfamily member 17 (Homo sapiens) aa 1-54 (Homo sapiens, UniProt Q02223 1-54); test: BLI Octet RED 384; antibody on ProA sensor, antigen 30 ug/ml (391.2 nM); response at end of association
T4 construct: range 1-54; not shown: Avi, His, TEV site and HSA parts as the name implies
T4 sequence (looked up): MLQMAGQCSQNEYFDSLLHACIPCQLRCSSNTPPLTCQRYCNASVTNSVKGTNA
Experimental: as §1, §2, §3

[5] = target: T5, Her3-H6F, Receptor tyrosine-protein kinase erbB-3 (Homo sapiens) aa 21-643 (Homo sapiens, UniProt P21860 21-643); test: BLI Octet RED 384; antibody on ProA sensor, antigen 30 ug/ml (420.8 nM); response at end of association
T5 construct: not shown: His and FLAG tags implied by the name 'H6F'
Experimental: as §1, §2, §3

[6] = target: T6, hAng2_H6F, Angiopoietin-2 (Homo sapiens) aa 19-496 (Homo sapiens, UniProt O15123 19-496); test: BLI Octet RED 384; antibody on ProA sensor, antigen 30 ug/ml (510.2 nM); response at end of association
T6 construct: also called hAng-H6F; not shown: His and FLAG tags implied by the name 'H6F'
T6 sequence: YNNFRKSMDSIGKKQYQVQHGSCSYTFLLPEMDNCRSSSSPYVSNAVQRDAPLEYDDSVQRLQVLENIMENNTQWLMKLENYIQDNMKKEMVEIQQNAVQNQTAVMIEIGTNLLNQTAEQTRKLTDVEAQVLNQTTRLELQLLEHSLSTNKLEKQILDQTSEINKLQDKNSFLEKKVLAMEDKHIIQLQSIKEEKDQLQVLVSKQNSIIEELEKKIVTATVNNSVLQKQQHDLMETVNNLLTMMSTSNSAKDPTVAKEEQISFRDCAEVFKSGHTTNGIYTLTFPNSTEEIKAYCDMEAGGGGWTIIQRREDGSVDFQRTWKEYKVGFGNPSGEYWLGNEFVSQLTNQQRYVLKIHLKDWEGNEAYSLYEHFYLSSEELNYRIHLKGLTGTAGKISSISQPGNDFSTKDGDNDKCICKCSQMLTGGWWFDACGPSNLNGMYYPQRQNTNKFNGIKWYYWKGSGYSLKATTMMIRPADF
Experimental: as §1, §2, §3

[7] = target: T7, Macaca CSF1R_C-His, Macrophage colony-stimulating factor 1 receptor (Macaca mulatta) aa 20-513 (Macaca mulatta); test: BLI Octet RED 384; antibody on ProA sensor, antigen 30 ug/ml (534.8 nM); response at end of association
T7 construct: range 20-513
Experimental: as §1, §2, §3

[8] = target: T8, hCD38-Avi, ADP-ribosyl cyclase/cyclic ADP-ribose hydrolase 1 (Homo sapiens) aa 43-300 (Homo sapiens, UniProt P28907 43-300); test: BLI Octet RED 384; antibody on ProA sensor, antigen 30 ug/ml (854.7 nM); response at end of association
T8 construct: range 43-300; not shown: Avi tag as the name implies
T8 sequence (looked up): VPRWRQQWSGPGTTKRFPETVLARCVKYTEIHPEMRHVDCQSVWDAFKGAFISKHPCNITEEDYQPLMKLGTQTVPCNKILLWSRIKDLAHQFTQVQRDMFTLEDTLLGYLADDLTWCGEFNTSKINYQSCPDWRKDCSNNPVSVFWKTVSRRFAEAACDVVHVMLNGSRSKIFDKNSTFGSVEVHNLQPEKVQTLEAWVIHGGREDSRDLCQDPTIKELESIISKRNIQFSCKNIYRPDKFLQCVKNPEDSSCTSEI
Experimental: as §1, §2, §3

T3 sequence (Q15116 21-170 limits assumed, form in doubt): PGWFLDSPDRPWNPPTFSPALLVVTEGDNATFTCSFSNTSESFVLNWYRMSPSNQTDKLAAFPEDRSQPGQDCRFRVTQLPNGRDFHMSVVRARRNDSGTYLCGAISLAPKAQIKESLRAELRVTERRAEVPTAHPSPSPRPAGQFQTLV
T5 sequence (P21860 21-643 limits assumed): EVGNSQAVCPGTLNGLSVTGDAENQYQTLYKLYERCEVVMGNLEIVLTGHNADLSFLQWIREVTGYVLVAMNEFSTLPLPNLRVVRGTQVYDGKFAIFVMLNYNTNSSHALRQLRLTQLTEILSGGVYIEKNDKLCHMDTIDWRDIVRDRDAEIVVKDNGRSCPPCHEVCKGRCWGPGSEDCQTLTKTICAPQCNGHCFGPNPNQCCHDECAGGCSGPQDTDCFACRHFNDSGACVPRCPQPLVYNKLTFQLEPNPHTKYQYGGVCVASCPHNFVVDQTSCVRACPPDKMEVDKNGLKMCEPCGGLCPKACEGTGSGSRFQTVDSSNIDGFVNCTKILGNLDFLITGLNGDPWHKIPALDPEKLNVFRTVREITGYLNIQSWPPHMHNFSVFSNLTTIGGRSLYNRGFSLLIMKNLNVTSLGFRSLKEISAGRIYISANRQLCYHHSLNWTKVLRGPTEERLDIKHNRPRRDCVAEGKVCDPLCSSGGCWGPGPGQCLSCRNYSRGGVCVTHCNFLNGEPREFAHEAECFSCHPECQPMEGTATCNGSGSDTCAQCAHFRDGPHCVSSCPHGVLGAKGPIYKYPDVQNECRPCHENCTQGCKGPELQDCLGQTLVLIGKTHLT

Row | Binder | Signal level (nm) [1] | Signal level (nm) [2] | Signal level (nm) [3] | Signal level (nm) [4] | Signal level (nm) [5] | Signal level (nm) [6] | Signal level (nm) [7] | Signal level (nm) [8]
1 | B1 | 0.0102 nm | 0.0103 nm | 0.35 nm | 0.0108 nm | 0.0217 nm | 0.0212 nm | 0.0236 nm | 0.004 nm
2 | B2 | -0.0036 nm | -0.0158 nm | -0.0059 nm | -0.0154 nm | -0.0161 nm | -0.0114 nm | 0.531 nm | -0.0089 nm
3 | B3 | -0.0057 nm | -0.0169 nm | 0.139 nm | 0.0021 nm | -0.0128 nm | -0.0194 nm | -0.0084 nm | 0.0072 nm
